Experimental data as given in patent US20090162351A1, “Transdiscal administration of inhibitors of p38 MAP kinase” (DePuy Spine, Inc., priority 2007, published 2009).

How the values were obtained:
[1] = tested on: annulus fibrosus and nucleus pulposus cells from bovine caudal discs treated with IL-1β; experiment: 3D in vitro disc cell model: GAG (DMMB); assay type: cell-based; conditions: 10 ng/ml IL-1β; inhibitor 1 μM, rhGDF-5 200 ng/ml
Description: (§1) Three-dimensional in vitro annulus fibrosis (AF) and nucleus pulposus (NP) models were established to investigate proteoglycan modulation and changes in gene expression in response to inflammatory cytokines such as interleukin-1 (e.g., IL-1β) and potential therapeutic agents such as growth and differentiation factor (GDF-5), and p38 MAP kinase inhibitors. AF and NP cells from bovine caudal discs were isolated by enzymatic digestion and seeded (2×10^6 cells/cm^2) onto Millipore CM filters coated with Collagen Type II and cultured in DMEM/20% heat-inactivated FBS, 100 ug/ml ascorbic acid and 5 ng/ml TGFβ1. […] Results were evaluated by histology (Tol. Blue staining was used to observe matrix production). Dimethylmethylene blue (DMMB) was used to detect sulphated glycosaminoglycans in a GAG/DNA assay. Taqman analysis was performed on aggrecans (AGG), collagen type 1 (col-1), collagen type 2 (col-2), and MMP 3, MMP 9 and MMP 13. In FIGS. 19A-C and 20A-C, annulus fibrosus and nucleus pulposus cells from bovine caudal discs were isolated by enzymatic digestion and seeded (2×10^6 cells/cm2) onto Millipore CM filters coated with Collagen Type II and cultured in DMEM/20% heat-inactivated FBS/100 ug/ml ascorbic acid and 5 ng/ml TGF-β1.

[2] = tested on: aggrecan and collagen type 2 mRNA in bovine AF and NP cells; experiment: 3D in vitro disc cell model: Taqman gene expression; assay type: cell-based; conditions: 10 ng/ml IL-1β; inhibitor 1 μM, rhGDF-5 200 ng/ml
Description: as §1

B1: rhGDF-5: growth and differentiation factor, member of the BMP family and TGF-beta superfamily (protein, UniProt P43026 382-501, looked up)
Growth/differentiation factor …: APLATRQGKRPSKNLKARCSRKALHVNFKDMGWDDWIIAPLEYEAFHCEGLCEFPLRSHLEPTNHAVIQTLMNSMDPESTPPTCCVPTRLSPISILFIDSANNVVYKQYEDMVVESCGCR
amount of GAG in the tissue (in words) [1]: restored | gene expression of Agg and Col 2 (in words) [2]: restored
